The record followed here is publication PMC3153647 (The Journal of Cell Biology, 2011).

This test has as its target T1, His-tagged Stx6 (aa 1–234) (human, UniProt O43752 1-234).
T1 sequence: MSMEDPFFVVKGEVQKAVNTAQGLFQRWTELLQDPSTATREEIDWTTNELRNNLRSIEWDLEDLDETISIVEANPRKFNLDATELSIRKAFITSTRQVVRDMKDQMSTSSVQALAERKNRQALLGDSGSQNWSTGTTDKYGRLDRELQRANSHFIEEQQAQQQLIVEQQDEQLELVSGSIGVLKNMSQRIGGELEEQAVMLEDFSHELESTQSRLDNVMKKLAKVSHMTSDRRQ
As to the kind of experiment: pull-down.

B1: GST-Cog6 (aa 1–200), bacterial (domain or fragment)
chain: MAEGSGEVVAVSATGAANGLNNGAGGTSATTCNPLSRKLHKILETRLDNDKEMLEALKALSTFFVENSLRTRRNLRGDIERKSLAINEEFVSIFKEVKEELESISEDVQAMSNCCQDMTSRLQAAKEQTQDLIVKTTKLQSESQKLEIRAQVADAFLSKFQLTSDEMSLLRGTREGPITEDFFKALGRVKQIHNDVKVLL
Consider B1, for which the binding result was “binds”.
